In the supplement of paper PMC9170038:

Test system: MS2 coat protein
Assay: apparent KD of MS2 coat protein; designed switch direction (-1 OFF switch, 1 ON switch): 1; higher = weaker reporter binding
Outline: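 Designed RNA switches with common flanks were transcribed on Illumina chips by stalled E. coli RNA polymerase and titrated with SNAP-549-labelled MS2 coat protein, from 0.7 or 1.5 nM doubling to 3 µM, in Tris-HCl pH 7.5 buffer with KCl, MgCl2, BSA, DTT, tRNA and Tween-20. Steps lasted 0.8–1.5 h (lowest) to 10–20 min (highest). Titrations ran without input, with 200 uM small-molecule ligand, or with an oligonucleotide input. Normalised cluster fluorescence was curve-fitted, and apparent KD is the per-design median over clusters.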

[1] = Eterna round: R95, input ligand: FMN 200 uM
[2] = Eterna round: R95, input ligand: microRNA oligo, concentration not stated
[3] = Eterna round: R95, input ligand: none
[4] = input ligand: microRNA oligo, concentration not stated

Sequence	apparent KD of MS2 coat protein [1]	apparent KD of MS2 coat protein [2]	apparent KD of MS2 coat protein [3]	apparent KD of MS2 coat protein (input ligand: FMN 200 uM)	apparent KD of MS2 coat protein [4]	apparent KD of MS2 coat protein (input ligand: none)
GUAUAACAUGAGGAUCACCCAUGUCAUCUAAGUCGAGGAUAUGGGCAAAUAUAAUAAGAACCAGAAGGCGAAUAUG [Mat - Same State 1 - Mod of UCT - D34] (puzzle: Same State 1)	57.8 nM	111 nM	119 nM			
GUAUCUACAGGUUGCAAUGCUCGUCGGAUACAUGAGGAUCACCCAUGUUAUAGCCCUGUGCUUGCGCAGGGCUGAUU [Sensor for hsa-mir-208a ( MOD of Tearor )] (puzzle: Sensor for hsa-mir-208a)	46.8 nM	39.4 nM	49.5 nM			
GUCGGCCUGUCGUGCUGAGGUGAUAGUUAACAUGAGGAUCACCCAUGUUGCUGUCGGGUCGUUGGGAGUUUUCUUCG [Modxample 117 - Jieux - Sensor for bsa-mir-208a] (Eterna round: R96, puzzle: Sensor for hsa-mir-208a)				71.2 nM	50.8 nM	62.4 nM
GUGAAGAAUUAAGGAUAUCGAGUCAAGAUGUUAAACAUGAGGAUCACCCAUGUGGGUUGCGGUAUCGAGAAGGUAAAUUACAGG [salish99_SSNG2_r04_502] (Eterna round: R96, puzzle: Same State NG 2)				25.9 nM	21.1 nM	31.7 nM
GUGAAGAAUUAAGGAUAUUGAAUACAUAUGUUUAACAUGAGGAUCACCCAUGUGGGUUGCGGUAUCGAGAAGGUAAAUUACUAG [salish99_SSNG2_r04_031] (Eterna round: R96, puzzle: Same State NG 2)				95.5 nM	89.9 nM	118 nM
GUGCAACCGUGUGAGGAUAUCGGUGAAUAGACAUGAGGAUCACCCAUGUCCGAAGCUCGGUUCUCCGAGAAGGCGCACAGUUGCA [Same State 2 - Mod of Erisin v.5] (puzzle: Same State 2)	42.8 nM	41.5 nM	52.4 nM			
GUGGAGAAUUAAGGAUAUCGAGUCAAGAUGUUAAACAUGAGGAUCACCCAUGUGGGUUGCGGUAUCGAGAAGGUAAUUUACGGG [salish99_SSNG2_r04_505] (Eterna round: R96, puzzle: Same State NG 2)				22.4 nM	21.3 nM	36.8 nM
GUGGUCAGACAUGAGGAUCACCCAUGUGGAAUAAAUAAGGAAAAGGAUAUCGAAUAUAGGAUAUACGAGAAGGUUUGGUUGGUG (Eterna round: R96, puzzle: Same State NG 3)					73.6 nM	
GUGGUCAGACAUGAGGAUCACCCAUGUGGAAUAAAUAAGGAAAAGGAUAUGGAAUAUAGGAUAUACCAGAAGGUUUGGUUGGUG (Eterna round: R96, puzzle: Same State NG 3)					83 nM	
GUGGUCAGACAUGAGGAUCACCCAUGUGGAAUAAAUAAGGACAAGGAUAUGGAAUAUAGGAUAUACCAGAAGGUGUGGUUGGUG (Eterna round: R96, puzzle: Same State NG 3)					67.5 nM	
GUGGUCAGACAUGAGGAUCACCCAUGUGGAAUAAAUAAGGAGAAGGAUAUGGAAUAUAGGAUAUACCAGAAGGUUUGGUUGGUG (Eterna round: R96, puzzle: Same State NG 3)					90.5 nM	
GUGGUCAGACAUGAGGAUCACCCAUGUGGAAUAAAUAAGGGACAGGAUAUGGAAUAUAGGAUAUACCAGAAGGGUUGGUUGGUG (Eterna round: R96, puzzle: Same State NG 3)				86.2 nM	68.7 nM	82 nM
GUGGUCAGACAUGAGGAUCACCCAUGUGGAAUAAAUAAGGGUCAGGAUAUGGAAUAUAGGAUAUACCAGAAGGGAUGGUUGGUG (Eterna round: R96, puzzle: Same State NG 3)				134 nM	70.2 nM	92.8 nM
GUGGUCUGACAUGAGGAUCACCCAUGUGGAAUAAAUAAGGGUUAGGAUAUCUUGAGGAUCACCCAAGAGAAGGGAUGGUUGGUG (Eterna round: R96, puzzle: Same State NG 3)				125 nM	90.7 nM	124 nM
GUGGUCUGACAUGAGGAUCACCCAUGUGGAAUAAAUACGGGUUAGGAUAUCUUGAGGAUCACCCAAGAGAAGGGAUCGAUUGUU (Eterna round: R96, puzzle: Same State NG 3)					36.4 nM	
GUGGUGGGUUGAGGAUAUUGGUUGUUGUUGUUUUACAUGAGGAUCACCCAUGUGGGUUGUGGUUUUGAGAAGGUUGGUUGCUGG [salish99_SSNG2_r04_048] (Eterna round: R96, puzzle: Same State NG 2)				262 nM	194 nM	185 nM

Sequence	apparent KD of MS2 coat protein [1]	apparent KD of MS2 coat protein [2]	apparent KD of MS2 coat protein [3]	apparent KD of MS2 coat protein (input ligand: FMN 200 uM)	apparent KD of MS2 coat protein [4]	apparent KD of MS2 coat protein (input ligand: none)
GUGGUGUAGAUACAGGAUAUGUUGCUCGUAACAUGAGGAUCACCCAUGUAUCUAUGAGAUAAAAUGCAGAAGGGUGCACACCACU [Mat - Same State 2 - Mod of UCT - D75] (puzzle: Same State 2)		245 nM				
GUGGUGUAGAUACAGGAUAUGUUGCUCGUAACAUGAGGAUCACCCAUGUAUGUAUGAGAAUGAAUGCAGAAGGGUGCACACCACG [Mat - Same State 2 - Mod of UCT - D77] (puzzle: Same State 2)	13.8 nM	106 nM	159 nM			
GUUACAUGAGGAUCACCCAUGUAAGUGUGGGAGAAAGUGACUUAGGAUAUCUAAUAUUUAAAUUAAGAGAAGGAAGAUUGUUGU [JMF's solution 4] (Eterna round: R96, puzzle: Same State NG 3)				86.8 nM	64.3 nM	81.6 nM
GUUACAUGAGGAUCACCCAUGUAUGUGUGGGAGUAAGUGUCUUAGGAUAUCUAGUAUUUAGUUUAAGAGAAGGAAGAUUGUUGU [JMF's solution 61] (Eterna round: R96, puzzle: Same State NG 3)				127 nM	90 nM	88.2 nM
GUUACAUGAGGAUCACCCAUGUAUGUGUGGGAGUAAGUGUCUUAGGAUAUCUAUGAGUUAAUUUAAGAGAAGGAAGAUUGUUGU [JMF's solution 74] (Eterna round: R96, puzzle: Same State NG 3)				97.2 nM	63.4 nM	77.5 nM
GUUACAUGAGGAUCACCCAUGUAUGUGUGGGAGUAAGUGUCUUAGGAUAUCUAUGAUUUAAUUUCAGAGAAGGAAGAUUGUUGU [JMF's solution 88] (Eterna round: R96, puzzle: Same State NG 3)				119 nM	68 nM	109 nM
GUUACAUGAGGAUCACCCAUGUAUGUGUGGGAGUAAGUGUCUUAGGAUAUCUGUUAUUUAAUUUGAGAGAAGGAAGAUUGUUGU [JMF's solution 47] (Eterna round: R96, puzzle: Same State NG 3)				134 nM	71.7 nM	89.1 nM
GUUACAUGAGGAUCACCCAUGUAUGUGUGGGAGUAAGUGUCUUAGGAUAUCUGUUAUUUGAUUUAAGAGAAGGAAGAUUGUUGU [JMF's solution 40] (Eterna round: R96, puzzle: Same State NG 3)				123 nM	78.4 nM	92.8 nM
GUUAUACAUGAGGAUCACCCAUGUCAAUGUAGUCGAGGAUAUGGGCAGCUAUGAGGCGUACUAGAAGGCGAGGAGU [JL-ss1-3.15 ViennaUCT mod] (puzzle: Same State 1)	90.7 nM	90.5 nM	134 nM			
UAAAAGAAGUUAGGAUAUGGUGAAGUACUGUGGCCAGAAGGGACGACUAACCGAGAAAGACAUGAGGAUCACCCAUGUCCACAG [Eternabot solution 20] (Eterna round: R96, puzzle: Same State NG 1)				86.5 nM	57 nM	74.5 nM
UAAAUAAUGAUAGGAUAUACAUGAGGAAUCCUCGUAGAAGGAUCAUGACAUGAGGAUCACCCAUGUAACGCUCGAAAGAGCGUA [Mat - Same State NG 1 - JL mod - D44] (Eterna round: R96, puzzle: Same State NG 1)				485 nM	265 nM	219 nM
UAAGGACAUGAGGAUCACCCAUGUGCUUCAUAUGGAGAAACUCAGGAUAUGCUGAGGAUCACCCAGCAGAAGGGAGAUCCGAGG (Eterna round: R96, puzzle: Same State NG 3)				206 nM	279 nM	281 nM
UACAAUCUAUCUGAGGAUAUCAUGAAAAAAACAUGAGGAUCACCCAUGUGCAGGAAAACUGCAUAUGAGAAGGCAGAUAGAUUGG [salish99_SS2_r3_007] (Eterna round: R96, puzzle: Same State 2)					505 nM	
UACAAUCUAUCUGAGGAUAUCAUGAAAAAAACAUGAGGAUCACCCAUGUGCAGGAAAACUGCAUAUGAGAAGGCAGAUAGAUUGG [salish99_SS2_r3_007] (puzzle: Same State 2)	14.3 nM	3390 nM	11700 nM			
UACAUACGCGGAGGAUAUGGGCGAGGCACGGAGGUCCGCGCCAAAACAUGAGGAUCACCCAUGUCCCAGAAGGCCGCACAAACU [Oreslaed] (Eterna round: R96, puzzle: Same State NG 2)				13.8 nM	54.4 nM	83.1 nM
UACCAUAGUAUAUUGGUGCAAGCUUUUUGACAUGAGGAUCACCCAUGUACUCGUCUUAUGUGCAGUCCGUAGACUGC [JL-shm-2.22 Brourd mod] (puzzle: Sensor for hsa-mir-208a)	57.8 nM	13 nM	54.6 nM			
